Results reported in patent US20060257938A1, “Method of screening for drugs that block ligand binding to a lipid binding protein” (priority 2005, published 2006).
Where “and” joins values, the source holds several entries; their conditions need not be identical. Identical values can stand only once.

Legend:
Format in all cases: binding
Details in all cases: response relative to ADIFAB2
[1] = Probe fluorescence ratio response to linoleic acid relative to ADIFAB2
In short: (§1)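 Each fatty acid's response was expressed relative to ADIFAB2, the rI-FABP-L72A probe, as ΔR/ΔRreference. ΔR is the change in the background-corrected two-wavelength intensity ratio R=Fλ1/Fλ2 from its analyte-free baseline R0. Emission was read near about 420-480 nm for unbound and about 495-580 nm for FFA-bound probe.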

[2] = Probe fluorescence ratio response to linolenic acid relative to ADIFAB2
In short: as §1

[3] = Probe fluorescence ratio response to palmitic acid relative to ADIFAB2
In short: as §1

[4] = Probe fluorescence ratio response to arachidonic acid relative to ADIFAB2
In short: as §1

[5] = Probe fluorescence ratio response to oleic acid relative to ADIFAB2
In short: as §1

B1: 40V1, L72A (protein, listed as Rattus norvegicus)
chain: AFDGTWKVDRNENYEKFMEKMGINVVKRKLGAHDNLKLTVTQEGNKFTVKESSNFRNIDVVFELGVDFAYSAADGTELTGTWTMEGNKLVGKFKRVDNGKELIAVREISGNELIQTYTYEGVEAKRIFKKE
modifications: PEPTIDE (1)...(131) wild-type rat intestinal fatty acid binding protein
In the case of B1, the “DR/DR LA” value [1] is reported as 1.24, the “DR/DR LNA” value [2] is reported as 1.28 and the “DR/DR PA” value [3] is reported as 0.91. The “DR/DR AA” value ([4]; Arachidonic acid) was 1.20 and the “DR/DR OA” value [5] was 1.21.

B2: 47T1, L72A (protein, listed as Rattus norvegicus)
chain: AFDGTWKVDRNENYEKFMEKMGINVVKRKLGAHDNLKLTITQEGNKTTVKESSNFRNIDVVFELGVDFAYSAADGTELTGTWTMEGNKLVGKFKRVDNGKELIAVREISGNELIQTYTYEGVEAKRIFKKE
modifications: PEPTIDE (1)...(131) wild-type rat intestinal fatty acid binding protein
In the case of B2, the “DR/DR LA” value [1] is reported as 0.77, the “DR/DR LNA” value [2] is reported as 0.74 and the “DR/DR PA” value [3] is reported as 0.46. For the same molecule, the “DR/DR AA” value ([4]; Arachidonic acid) was 0.68 and the “DR/DR OA” value [5] was 0.74.

B3: 47C3, L72A (protein, listed as Rattus norvegicus)
chain: AFDGTWKVDRNENYEKFMEKMGINVVKRKLGAHDNLKLTITQEGNKCTVKESSNFRNIDVVFELGVDFAYSAADGTELTGTWTMEGNKLVGKFKRVDNGKELIAVREISGNELIQTYTYEGVEAKRIFKKE
modifications: PEPTIDE (1)...(131) wild-type rat intestinal fatty acid binding protein
For B3, the “DR/DR LA” value [1] was 0.37, the “DR/DR LNA” value [2] was 0.35 and the “DR/DR PA” value [3] was 0.23. The “DR/DR AA” value ([4]; Arachidonic acid) was 0.32 and the “DR/DR OA” value [5] was 0.35.

B4: 47V3, L72A (protein, listed as Rattus norvegicus)
chain: AFDGTWKVDRNENYEKFMEKMGINVVKRKLGAHDNLKLTITQEGNKVTVKESSNFRNIDVVFELGVDFAYSAADGTELTGTWTMEGNKLVGKFKRVDNGKELIAVREISGNELIQTYTYEGVEAKRIFKKE
modifications: PEPTIDE (1)...(131) wild-type rat intestinal fatty acid binding protein
In the case of B4, the “DR/DR LA” value [1] is reported as 1.04, the “DR/DR LNA” value [2] is reported as 1.01 and the “DR/DR PA” value [3] is reported as 0.78. For the same molecule, the “DR/DR AA” value ([4]; Arachidonic acid) was 1.00 and the “DR/DR OA” value [5] was 1.01.

B5: 47R3, L72A (protein, listed as Rattus norvegicus)
chain: AFDGTWKVDRNENYEKFMEKMGINVVKRKLGAHDNLKLTITQEGNKRTVKESSNFRNIDVVFELGVDFAYSAADGTELTGTWTMEGNKLVGKFKRVDNGKELIAVREISGNELIQTYTYEGVEAKRIFKKE
modifications: PEPTIDE (1)...(131) wild-type rat intestinal fatty acid binding protein
In the case of B5, the “DR/DR LA” value [1] is reported as 0.64, the “DR/DR LNA” value [2] is reported as 0.61 and the “DR/DR PA” value [3] is reported as 0.30. The “DR/DR AA” value ([4]; Arachidonic acid) was 0.56 and the “DR/DR OA” value [5] was 0.62.

B6: 47Y2, L72A (protein, listed as Rattus norvegicus)
chain: AFDGTWKVDRNENYEKFMEKMGINVVKRKLGAHDNLKLTITQEGNKYTVKESSNFRNIDVVFELGVDFAYSAADGTELTGTWTMEGNKLVGKFKRVDNGKELIAVREISGNELIQTYTYEGVEAKRIFKKE
modifications: PEPTIDE (1)...(131) wild-type rat intestinal fatty acid binding protein
With B6 the “DR/DR LA” value [1] was 1.40, the “DR/DR LNA” value [2] was 1.40 and the “DR/DR PA” value [3] was 1.17. For the same molecule, the “DR/DR AA” value ([4]; Arachidonic acid) was 1.37 and the “DR/DR OA” value [5] was 1.42.

B7: 47A1, L72A (protein, listed as Rattus norvegicus)
chain: AFDGTWKVDRNENYEKFMEKMGINVVKRKLGAHDNLKLTITQEGNKATVKESSNFRNIDVVFELGVDFAYSAADGTELTGTWTMEGNKLVGKFKRVDNGKELIAVREISGNELIQTYTYEGVEAKRIFKKE
modifications: PEPTIDE (1)...(131) wild-type rat intestinal fatty acid binding protein
In the case of B7, the “DR/DR LA” value [1] is reported as 0.58, the “DR/DR LNA” value [2] is reported as 0.57 and the “DR/DR PA” value [3] is reported as 0.30. For the same molecule, the “DR/DR AA” value ([4]; Arachidonic acid) was 0.54 and the “DR/DR OA” value [5] was 0.59.

B8: 102R, 72A (protein, listed as Rattus norvegicus)
chain: AFDGTWKVDRNENYEKFMEKMGINVVKRKLGAHDNLKLTITQEGNKFTVKESSNFRNIDVVFELGVDFAYSAADGTELTGTWTMEGNKLVGKFKRVDNGKERIAVREISGNELIQTYTYEGVEAKRIFKKE
modifications: PEPTIDE (1)...(131) wild-type rat intestinal fatty acid binding protein
With B8 the “DR/DR LA” value [1] was 0.60, the “DR/DR LNA” value [2] was 0.57 and the “DR/DR PA” value [3] was 0.25. For the same molecule, the “DR/DR AA” value ([4]; arachidonic acid) was 0.51 and the “DR/DR OA” value [5] was 0.56.

B9: 47M, 72A (protein, listed as Rattus norvegicus)
chain: AFDGTWKVDRNENYEKFMEKMGINVVKRKLGAHDNLKLTITQEGNKMTVKESSNFRNIDVVFELGVDFAYSAADGTELTGTWTMEGNKLVGKFKRVDNGKELIAVREISGNELIQTYTYEGVEAKRIFKKE
modifications: PEPTIDE (1)...(131) wild-type rat intestinal fatty acid binding protein
With B9 the “DR/DR LA” value [1] was 1.18 and 1.183, the “DR/DR LNA” value [2] was 1.13 and 1.135 and the “DR/DR PA” value [3] was 0.97 and 0.966. For the same molecule, the “DR/DR AA” value ([4]; Arachidonic acid) was 1.14, the “DR/DR AA” value ([4]; arachidonic acid) was 1.138 and the “DR/DR OA” value [5] was 1.17 and 1.168.

B10: 40Y3, L72A (protein, listed as Rattus norvegicus)
chain: AFDGTWKVDRNENYEKFMEKMGINVVKRKLGAHDNLKLTYTQEGNKFTVKESSNFRNIDVVFELGVDFAYSAADGTELTGTWTMEGNKLVGKFKRVDNGKELIAVREISGNELIQTYTYEGVEAKRIFKKE
modifications: PEPTIDE (1)...(131) wild-type rat intestinal fatty acid binding protein
With B10 the “DR/DR LA” value [1] was 0.50, the “DR/DR LNA” value [2] was 0.49 and the “DR/DR PA” value [3] was 0.29. For the same molecule, the “DR/DR AA” value ([4]; Arachidonic acid) was 0.89 and the “DR/DR OA” value [5] was 0.48.

B11: 47H1, L72A (protein, listed as Rattus norvegicus)
chain: AFDGTWKVDRNENYEKFMEKMGINVVKRKLGAHDNLKLTITQEGNKHTVKESSNFRNIDVVFELGVDFAYSAADGTELTGTWTMEGNKLVGKFKRVDNGKELIAVREISGNELIQTYTYEGVEAKRIFKKE
modifications: PEPTIDE (1)...(131) wild-type rat intestinal fatty acid binding protein
In the case of B11, the “DR/DR LA” value [1] is reported as 0.74, the “DR/DR LNA” value [2] is reported as 0.70 and the “DR/DR PA” value [3] is reported as 0.43. The “DR/DR AA” value ([4]; Arachidonic acid) was 0.63 and the “DR/DR OA” value [5] was 0.67.

B12: 47E3, L72A (protein, listed as Rattus norvegicus)
chain: AFDGTWKVDRNENYEKFMEKMGINVVKRKLGAHDNLKLTITQEGNKETVKESSNFRNIDVVFELGVDFAYSAADGTELTGTWTMEGNKLVGKFKRVDNGKELIAVREISGNELIQTYTYEGVEAKRIFKKE
modifications: PEPTIDE (1)...(131) wild-type rat intestinal fatty acid binding protein
In the case of B12, the “DR/DR LA” value [1] is reported as 1.23, the “DR/DR LNA” value [2] is reported as 1.26 and the “DR/DR PA” value [3] is reported as 1.06. The “DR/DR AA” value ([4]; Arachidonic acid) was 1.25 and the “DR/DR OA” value [5] was 1.25.

B13: 102S, 72A (protein, listed as Rattus norvegicus)
chain: AFDGTWKVDRNENYEKFMEKMGINVVKRKLGAHDNLKLTITQEGNKFTVKESSNFRNIDVVFELGVDFAYSAADGTELTGTWTMEGNKLVGKFKRVDNGKESIAVREISGNELIQTYTYEGVEAKRIFKKE
modifications: PEPTIDE (1)...(131) wild-type rat intestinal fatty acid binding protein
For B13, the “DR/DR LA” value [1] was 0.45, the “DR/DR LNA” value [2] was 0.43 and the “DR/DR PA” value [3] was 0.18. For the same molecule, the “DR/DR AA” value ([4]; arachidonic acid) was 0.39 and the “DR/DR OA” value [5] was 0.43.

B14: 47L2, L72A (protein, listed as Rattus norvegicus)
chain: AFDGTWKVDRNENYEKFMEKMGINVVKRKLGAHDNLKLTITQEGNKLTVKESSNFRNIDVVFELGVDFAYSAADGTELTGTWTMEGNKLVGKFKRVDNGKELIAVREISGNELIQTYTYEGVEAKRIFKKE
modifications: PEPTIDE (1)...(131) wild-type rat intestinal fatty acid binding protein
With B14 the “DR/DR LA” value [1] was 1.21, the “DR/DR LNA” value [2] was 1.20 and the “DR/DR PA” value [3] was 0.90. For the same molecule, the “DR/DR AA” value ([4]; Arachidonic acid) was 1.15 and the “DR/DR OA” value [5] was 1.20.

B15: 47P1, L72A (protein, listed as Rattus norvegicus)
chain: AFDGTWKVDRNENYEKFMEKMGINVVKRKLGAHDNLKLTITQEGNKPTVKESSNFRNIDVVFELGVDFAYSAADGTELTGTWTMEGNKLVGKFKRVDNGKELIAVREISGNELIQTYTYEGVEAKRIFKKE
modifications: PEPTIDE (1)...(131) wild-type rat intestinal fatty acid binding protein
For B15, the “DR/DR LA” value [1] was 0.59, the “DR/DR LNA” value [2] was 0.61 and the “DR/DR PA” value [3] was 0.26. For the same molecule, the “DR/DR AA” value ([4]; Arachidonic acid) was 0.54 and the “DR/DR OA” value [5] was 0.57.

B16: 47S1, L72A (protein, listed as Rattus norvegicus)
chain: AFDGTWKVDRNENYEKFMEKMGINVVKRKLGAHDNLKLTITQEGNKSTVKESSNFRNIDVVFELGVDFAYSAADGTELTGTWTMEGNKLVGKFKRVDNGKELIAVREISGNELIQTYTYEGVEAKRIFKKE
modifications: PEPTIDE (1)...(131) wild-type rat intestinal fatty acid binding protein
For B16, the “DR/DR LA” value [1] was 0.66, the “DR/DR LNA” value [2] was 0.69 and the “DR/DR PA” value [3] was 0.34. The “DR/DR AA” value ([4]; Arachidonic acid) was 0.61 and the “DR/DR OA” value [5] was 0.64.

B17: 47I2, L72A (protein, listed as Rattus norvegicus)
chain: AFDGTWKVDRNENYEKFMEKMGINVVKRKLGAHDNLKLTITQEGNKITVKESSNFRNIDVVFELGVDFAYSAADGTELTGTWTMEGNKLVGKFKRVDNGKELIAVREISGNELIQTYTYEGVEAKRIFKKE
modifications: PEPTIDE (1)...(131) wild-type rat intestinal fatty acid binding protein
For B17, the “DR/DR LA” value [1] was 1.22, the “DR/DR LNA” value [2] was 1.19 and the “DR/DR PA” value [3] was 0.92. The “DR/DR AA” value ([4]; Arachidonic acid) was 1.19 and the “DR/DR OA” value [5] was 1.15.
